Reference: publication PMC2241890
Like-named read-outs stand apart in the source and are kept apart here.

Columns and labels:
Assay in all cases: EMSA
[1] = target: T1, HU alpha-beta heterodimer (Escherichia coli, UniProt P0ACF0;P0ACF4 1-90;1-90)
[2] = target: T1, HU alpha-beta heterodimer; remark: listed apart in the source
[3] = target: T1, HU alpha-beta heterodimer; remark: listed apart in the source
[4] = target: T1, HU alpha-beta heterodimer; remark: listed apart in the source
[5] = target: T1, HU alpha-beta heterodimer; remark: listed apart in the source
[6] = target: T1, HU alpha-beta heterodimer; remark: listed apart in the source
[7] = target: T1, HU alpha-beta heterodimer; remark: listed apart in the source
[8] = target: T1, HU alpha-beta heterodimer; remark: listed apart in the source
[9] = target: T1, HU alpha-beta heterodimer; remark: listed apart in the source
[10] = target: T1, HU alpha-beta heterodimer; remark: listed apart in the source

T1 sequence (P0ACF0 whole entry, chain 1 of 2): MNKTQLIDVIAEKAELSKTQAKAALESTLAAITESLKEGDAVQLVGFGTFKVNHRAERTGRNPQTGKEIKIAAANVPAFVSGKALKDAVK
T1 sequence (P0ACF4 whole entry, chain 2 of 2): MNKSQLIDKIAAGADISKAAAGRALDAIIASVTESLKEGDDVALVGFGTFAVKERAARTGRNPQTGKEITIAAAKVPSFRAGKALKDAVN

In the case of AGTCTAGAGTGCAGTTGAGTCCTTGCTACGACGGAT (ssDNA) [ssDNA D-36], the Kd [1] is reported as 80 nM.

AGTCTAGAGTGCAGTTGAGTCCTTGCTA (ssDNA) [ssDNA D-28] was tested, and the Kd [2] was 755 nM.

B1: mismatch 4 (dsDNA)
DNA 1: AGTCTAGACTGCAGTTGAGTCCTTGCTAGGACGGATCCCT
DNA 2: AGGGATCCGTCCTAGCAAATGTTCAACTGCAGTCTAGACT
B1 showed a Kd [3] of 21 nM.

Work on AGTCTAGAGTGCAGTTGAGTCCTTGCTACGACGGATCCCT (ssDNA) [ssDNA D-40] yielded a Kd [4] of 54 nM.

B2: mismatch 8 (dsDNA)
DNA 1: AGTCTAGACTGCAGTTGAGTCCTTGCTAGGACGGATCCCT
DNA 2: AGGGATCCGTCCTAGCTGATGTAGAACTGCAGTCTAGACT
For B2, the Kd [5] was 6 nM.

B3: mismatch 6 (dsDNA)
DNA 1: AGTCTAGACTGCAGTTGAGTCCTTGCTAGGACGGATCCCT
DNA 2: AGGGATCCGTCCTAGCAGATGTACAACTGCAGTCTAGACT
B3 showed a Kd [5] of 6 nM.

B4: dsDNA 40 (dsDNA)
DNA 1: AGTCTAGAGTGCAGTTGAGTCCTTGCTACGACGGATCCCT
DNA 2: AGGGATCCGTCGTAGCAAGGACTCAACTGCACTCTAGACT
B4 showed a Kd [6] of 7 nM.

B5: mismatch 10 (dsDNA)
DNA 1: AGTCTAGACTGCAGTTGAGTCCTTGCTAGGACGGATCCCT
DNA 2: AGGGATCCGTCCTAGTTGATGTAGCACTGCAGTCTAGACT
Binder B5 has a Kd [5] of 6 nM.

B6: nicked 40 (dsDNA)
DNA 1: AGTCTAGAGTGCAGTTGAGTCCTTGCTACGACGGATCCCT
DNA 2: AGGGATCCGTCGTAGCAAGG
DNA 3: ACTCAACTGCACTCTAGACT
B6 gave a Kd [7] of 3 nM.

Work on AGTCTAGAGTGCAGTTGAGTCCTTGCTACGAC (ssDNA) [ssDNA D-32] yielded a Kd [8] of 114 nM.

With AGTCTAGAGTGCAGTTGAGTCCTTGCTACGACGGATCCCTTAGG (ssDNA) [ssDNA D-44] the Kd [9] was 40 nM.

Binder AGTCTAGAGTGCAGTTGAGTCCTTGCTACGACGGATCCCTTAGGTCAG (ssDNA) [ssDNA D-48] has a Kd [1] of 41 nM.

AGTCTAGAGTGCAGTTGAGTCCTT (ssDNA) [ssDNA D-24]: binds [10].
